Laboratory results: the supplement of paper PMC9170038

System: K4 kissing-loop RNA reporter
Assay: apparent KD of K4 kissing-loop reporter; higher = weaker reporter binding
Details: Eterna round: R107; input ligand: none
Experimental: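 RNA-MaP round R107: designed RNA switches with theophylline, tryptophan, arginine or FMN aptamers are transcribed on-chip within common flanks. They are titrated with a labelled K4 kissing-loop RNA reporter in RNA-MaP buffer (100 mM Tris pH 7.5, 80 mM KCl, 4 mM MgCl2), without ligand or with the indicated ligand. Median apparent KD per design.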
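Further: bound reporter read as fluorescence of individual clusters on recovered sequencing chips by microscopy, with normalized cluster intensities fitted with a binding model.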

In order of rising “apparent KD of K4 kissing-loop reporter” value:
1. AAACAUUGGUGCGAUACCAGCUGAUCGGAAACGAUCUUGCUGGAGUGAUGUUCCAAGUAAAGCCCUUGGCAGCGCACCGAUGAAA [MAT - Same State Theophlline B - Mod of Eli - D21]  0.0915 µM
2. AUGAGGAACAGUGAUCCUAUUCCAUGGGAAGGAGCGUAGGAUACUACAGGUAGGUCGCCCAGUGAUGUUGGGCGCGUGUUCUUGG [Soririza]  0.113 µM
3. AACUUUUAAUGAAUUACAUUUUAUUUUUCUCGAGGACCGGUACGGCCGCCACUCGUACUAUAGUGAUGUUAUAGAUAAGUCCUAA [JR_ExcTryptoA_Sub020]  0.142 µM
4. GGAUAGGACAGAGGAUAUGGAGAGUCUACAAAGUAGGCUCAUAAUCCUUGAAUGGAAGUGAUGUUUCUAGAAGGCUGUCCUAUCG [FmnBX 18 - #SwitchBubble #StaticStem #Palindromic]  0.143 µM
5. CCAUCGCUAUUCGAUACCAGCUACUUAGUGAUGUUAAGUUAAAAUUAAUUGUAGAUUAAAAGCCCUUGGCAGCGAAUAGUGAUGG [Theophylline B K4 20]  0.154 µM
6. GCUAUGGUAGGAAGGAGCGCUUAUUUAUUAAUAAGAGUGAUGUUCGAUAAUAAAUAUUUAUAGCAGGUAGGUCGCCUACUAUAGC [Arginine B K4 1]  0.232 µM
7. UUUUGGCCAACGGCCGCCACUCACUAGUGAUGUUAGUUUGUGUUAUUCAUGAACCCGAUGUCGUCGAGGACCGGGUUGGGUUAUA [theeternabot_exclusion_KL_Trp_B_41]  0.237 µM
8. AGCCUGAUAUAAGGAUAUCCGGACCGAGUAACUGAGUGAUGUUCAGGUGAAUAAUGUCUCACAUUGGGAGAAGGUAUUUCAGCGA [theeternabot_sameState_KL_FMN_B_21]  0.251 µM
9. GGGAAACCCAAUCAUACGGCGGUUCUUAGUCGAGGACCGGUACGGCCGCCACUCGAACUUGCUAGUGAUGUUAGCUUAUCGAGCU  0.253 µM
10. UGUGCUGUGUAGUGUAAUGUUUUGCGGGAUACCAGAGUCUUUUUAUUCCCUUGGCAGCUUGAGUGAUGUUUGAUGCUGUUCUUGU [bbtbmullin]  0.356 µM
11. GCGUCCAUGUAUGAUACCAGACUUUUUUUAGUAGGUGACGAUAGUGAUGUUAUACGUCAAGUCCCUUGGCAGCAUGACCUAUUAU [theeternabot_exclusion_KL_Theo_B_23]  0.418 µM
12. UGUACCGAGUCAGGAUAUGGCGUCGAAAGACGAAUCUUAGUGAUGUUAGGGAUCUGCGAAAGCAGUCUAGAAGGGACUUGGUACU [FmnBS 26 U37+U68]  0.439 µM
13. AAGGUUGUGCAUGGGAGUGAUGUUCCCACGCAGGAUAUCGCUCUCGCGAGAAGGGCGAGCACAACCGCUCAAGAAACUUGAGCAA [Omei KL FMN A SS C v3]  0.48 µM
14. UUGUUUGGUUGAGAGGUUGGGCGAGAUGAUACCAGUAGAGAAGAAUACCCUUGGCAGCAUAAGAAAGAUAUAGUGAUGUUGUAUA [SSTheophA.O]  0.49 µM
15. CCCUUGGUAUAUCGGUAUGUAUAAGCGGAUACCAGCCAGGACAACGGCCCUUGGCAGCCGGGCAGGCAGAGUGAUGUUCAUGCUA [theeternabot_exclusion_KL_Theo_A_22]  0.516 µM
16. GCCGUACGCAUGGAUACCAGAUGGCACUAUAAUCUCCCAGAGUGAUGUUCUGGCCUGCCUAUCCCUUGGCAGCCAUGCGUACGGC  0.67 µM
17. UUUAAAUAUAGUGAUGUUAUAUAACAAUGACGAGGACCGGUACGGCCGCCACUCGAGAGAGAUAAUGGUAAAAUAAAUAAUUUUC [AstrosSSTryA#3]  0.709 µM
18. CUUGGUCUACGAAGGAGCGCCGUGCAGUGAUGUUGCAGUCAGAUCGAGUGAUGUUUCGGGCGGCAGGUAGGUCGCGUGGCCCUCU [Excusion Arginine B GF 27]  0.725 µM
19. CAGCGGAGUGAUGUUCUGCUUACUCCGGAUACCAGCUUCGCCAGAGGCCCUUGGCAGCCGGGCGGCUCAGUGAUGUUGGGUUGCU [Same State Theophylline A GF 16]  0.87 µM
20. GCGCGCGGCGGAGGAUAUAGCCGGUGGUCCGGGAAAGUGAGUGAUGUUCGCGGAGUUCUGGAUAUGUUAGAAGGCCGCCGCGCGC [qwertyuiopasdfghjklzxcvbnm]  1.06 µM
21. UGAUACCAGACGGCCGCCACUCCUGCAAGUCAAAGACUUGCUAAAGGAAUCGUCCAGUGAUGUUGGAGGACCGGGUCUGGUAUCU [TrypBX 18 #SwitchBubble #Palindromic #StaticStem]  1.16 µM
22. UGUCAUUGGUCGGCCGCCACUUCAUAAAGAGUGAUGUUCUGAAAGACGGAUCGAAAGAUCUGUCGGAGGACCGGGACCGAUGACU [FiskerMod 2 - Jieux - Same State - Tryptophan B]  1.44 µM

Same assay, conditions: Eterna round: R107; input ligand: theophylline 20 uM

In order of falling “apparent KD of K4 kissing-loop reporter” value:
1. UGUGUUUACCUGACUCAGUGAUGUUGAGAAGGAGCGUGCGAAUGCACAGGUAGGUCGCUCAACCUAAAUUCAGGUGAGCACUAAA  0.656 µM
2. UGUGCCAACAGCGAUACCAGCCCGGCAGUGAUGUUGCCGGACGGAGUGAUGUUCCGGCAGGGCCCUUGGCAGCGCAGAAGCGCGA [Exclusion Theophylline B Gf 28]  0.432 µM
3. CGUGAGUGAUGUUCACGAUGCUUCAAUCUAGAGGAUAUUCACGAUCGAAGAAGGCUGGACAAGUGCUGUCUCAUGACAGAUAAGG [FMN A SS t4]  0.298 µM
4. UUCCAGUGAUGUUGGUAUCUGAUAAGGGAAGGAGCGCGGAUUAACGCAGGUAGGUCGCCCAAGUAAUAAAUGUUUAUUAAUUGAU [Default title]  0.161 µM
5. AAGCAUUCUUCGGAAUGCAGACCCGCUGAGGAGGAUAUGACGAAAGUCAGAAGGUCUCAGUGAUGUUGAGGCCUCCUCAAUGGUC [whbob_Ex_FMNA__2th181]  0.16 µM
